This is an account of results in US20120164670.

Data set [1] deals with T1, H3K9ac substrate (TARK(ac)STG).
T1 chain: TARKSTG

Data set [2] concerns the target DBC1, Q8N163.
Data set [3] concerns the target Fleur de Lys peptide (BIOMOL).

Chain of DBC1, Q8N163 (Q8N163 whole entry, looked up): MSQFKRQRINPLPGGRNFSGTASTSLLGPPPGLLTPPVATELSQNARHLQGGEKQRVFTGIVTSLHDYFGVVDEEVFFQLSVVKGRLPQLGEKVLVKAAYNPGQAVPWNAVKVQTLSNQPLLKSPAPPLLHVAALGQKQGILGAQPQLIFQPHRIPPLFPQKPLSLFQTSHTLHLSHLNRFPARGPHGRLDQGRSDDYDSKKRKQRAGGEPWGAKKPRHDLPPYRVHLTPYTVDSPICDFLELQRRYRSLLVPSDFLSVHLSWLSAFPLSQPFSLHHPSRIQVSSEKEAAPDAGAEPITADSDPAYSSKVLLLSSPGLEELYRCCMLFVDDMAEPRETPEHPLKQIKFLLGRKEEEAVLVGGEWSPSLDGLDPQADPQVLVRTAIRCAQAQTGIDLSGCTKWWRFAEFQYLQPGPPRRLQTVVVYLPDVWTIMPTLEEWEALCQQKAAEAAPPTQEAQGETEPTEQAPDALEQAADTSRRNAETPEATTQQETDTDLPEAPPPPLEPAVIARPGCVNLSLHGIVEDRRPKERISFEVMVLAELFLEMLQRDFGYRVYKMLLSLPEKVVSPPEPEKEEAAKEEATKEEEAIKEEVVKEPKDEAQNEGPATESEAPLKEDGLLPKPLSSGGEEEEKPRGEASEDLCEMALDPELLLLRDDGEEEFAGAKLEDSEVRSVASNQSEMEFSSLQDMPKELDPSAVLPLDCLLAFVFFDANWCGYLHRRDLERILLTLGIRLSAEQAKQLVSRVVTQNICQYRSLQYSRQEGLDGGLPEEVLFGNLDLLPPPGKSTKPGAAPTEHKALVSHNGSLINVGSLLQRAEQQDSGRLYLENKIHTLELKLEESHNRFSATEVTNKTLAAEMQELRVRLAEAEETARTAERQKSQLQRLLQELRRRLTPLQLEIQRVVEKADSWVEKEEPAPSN

B1: full-length human SIRT1 enzyme (protein)
chain: ADEAALALQPGGSPSAAGADREAASSPAGEPLRKRPRRDGPGLERSPGEPGGAAPEREVPAAARGCPGAAAAALWREAEAEAAAAGGEQEAQATAAAGEGDNGPGLQGPSREPPLADNLYDEDDDDEGEEEEEAAAAAIGYRDNLLFGDEIITNGFHSCESDEEDRASHASSSDWTPRPRIGPYTFVQQHLMIGTDPRTILKDLLPETIPPPELDDMTLWQIVINILSEPPKRKKRKDINTIEDAVKLLQECKKIIVLTGAGVSVSCGIPDFRSRDGIYARLAVDFPDLPDPQAMFDIEYFRKDPRPFFKFAKEIYPGQFQPSLCHKFIALSDKEGKLLRNYTQNIDTLEQVAGIQRIIQCHGSFATASCLICKYKVDCEAVRGDIFNQVVPRCPRCPADEPLAIMKPEIVFFGENLPEQFHRAMKYDKDEVDLLIVIGSSLKVRPVALIPSSIPHEVPQILINREPLPHLHFDVELLGDCDVIINELCHRLGGEYAKLCCNPVKLSEITEKPPRTQKELAYLSELPPTPLHVSEDSSSPERTSPPDSSVIVTLLDQAAKSNDDLDVSESKGCMEEKPQEVQTSRNVESIAEQMENPDLKNVGSSTGEKNERTSVAGTVRKCWPNRVAKEQISRRLDGNQYLFLPPNRYIFHGAEVYSDSEDDVLSSSSCGSNSDSGTCQSPSLEEPMEDESEIEEFYNGLEDEPDVPERAGGAGFGTDGDDQEAINEAISVKQEVTDMNYPSNKS
On to B1, for which the “Km (stated in the kit protocol for the SIRT1 deacetylation reaction)” value in data set [1] was “final concentration=50 uM (Km)”. Moreover, the “SIRT1 activity (PNC1-OPT assay, dose titration of DBC1, H3K9-L peptide substrate)” value in data set [2] is recorded as “DBC1 concentration inversely correlates with SIRT1 activity”. In data set [3], the “Km (PNC1-OPT nicotinamide assay, SIRT1 deacetylation)” value is given as “˜130.2 uM”.
